The record followed here is paper PMC2192141.

This series concerns the target HMG I/Y (recombinant HMG I) (UniProt P17096 1-107). Put plainly: EMSA.

Chain of HMG I/Y (recombinant HMG I) (P17096 whole entry): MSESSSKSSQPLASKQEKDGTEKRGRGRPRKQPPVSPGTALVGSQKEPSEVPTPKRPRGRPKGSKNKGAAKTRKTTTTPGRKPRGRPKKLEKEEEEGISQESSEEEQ

B1: MIS (mutant D box) (dsDNA)
DNA 1: ATCTCAAAATATGGGTCTGATTGGCCA
DNA 2: TGGCCAATCAGACCCATATTTTGAGAT
Take B1: the binding result is “no binding”.

B2: MOCT (mutant octamer) (dsDNA)
DNA 1: AGAGTAATTGATGGGCATTTTAATGG
DNA 2: CCATTAAAATGCCCATCAATTACTCT
For the molecule B2, the binding result is listed as “no binding”.
